Data reported in the supplement of paper PMC5998384.

Assays:
HeLa Kyoto [1] = assay: solubility in G1/S (NP-40 vs SDS abundance) (log2 ratio); higher = more soluble; conditions: cell cycle stage: G1/S
HeLa Kyoto [2] = assay: solubility change mitosis vs G1/S (difference of NP-40 vs SDS log2 ratios) (log2 ratio difference); higher = more soluble in mitosis
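Throughout, for solubility change mitosis vs G1/S (difference of NP-40 vs SDS log2 ratios): synchronized HeLa Kyoto cells (double thymidine block for G1/S, nocodazole release for mitosis), protein amounts in NP-40 versus SDS lysates quantified by mass spectrometry, three biological replicates.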
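Throughout, for solubility in G1/S (NP-40 vs SDS abundance): HeLa Kyoto cells arrested at G1/S by double thymidine block, proteins quantified by TMT10plex mass spectrometry in mild NP-40 versus SDS extracts, three biological replicates.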

Row | Sequence | solubility in G1/S (log2) (HeLa Kyoto [1]) | solubility change mitosis (log2) (HeLa Kyoto [2])
1 | MAVWIQAQQLQGEALHQMQALYGQHFPIEVRHYLSQWIESQAWDSVDLDNPQENIKATQLLEGLVQELQKKAEHQVGEDGFLLKIKLGHYATQLQNTYDRCPMELVRCIRHILYNEQRLVREANNGSSPAGSLADAMSQKHLQINQTFEELRLVTQDTENELKKLQQTQEYFIIQYQESLRIQAQFGPLAQLSPQERLSRETALQQKQVSLEAWLQREAQTLQQYRVELAEKHQKTLQLLRKQQTIILDDELIQWKRRQQLAGNGGPPEGSLDVLQSWCEKLAEIIWQNRQQIRRAEHLCQQLPIPGPVEEMLAEVNATITDIISALVTSTFIIEKQPPQVLKTQTKFAATVRLLVGGKLNVHMNPPQVKATIISEQQAKSLLKNENTRNDYSGEILNNCCVMEYHQATGTLSAHFRNMSLKRIKRSDRRGAESVTEEKFTILFESQFSVGGNELVFQVKTLSLPVVVIVHGSQDNNATATVLWDNAFAEPGRVPFAVPDKVLWPQLCEALNMKFKAEVQSNRGLTKENLVFLAQKLFNNSSSHLEDYSGLSVSWSQFNRENLPGRNYTFWQWFDGVMEVLKKHLKPHWNDGAILGFVNKQQAHDLLINKPDGTFLLRFSDSEIGGITIAWKFDSQERMFWNLMPFTTRDFSIRSLADRLGDLNYLIYVFPDRPKDEVYSKYYTPVPCESATAKAVDGYVKPQIKQVVPEFVNASADAGGGSATYMDQAPSPAVCPQAHYNMYPQNPDSVLDTDGDFDLEDTMDVARRVEELLGRPMDSQWIPHAQS [STAT5B] | -0.0111 | -0.309
2 | MAWWKAWIEQEGVTVKSSSHFNPDPDAETLYKAMKGIGTNEQAIIDVLTKRSNTQRQQIAKSFKAQFGKDLTETLKSELSGKFERLIVALMYPPYRYEAKELHDAMKGLGTKEGVIIEILASRTKNQLREIMKAYEEDYGSSLEEDIQADTSGYLERILVCLLQGSRDDVSSFVDPALALQDAQDLYAAGEKIRGTDEMKFITILCTRSATHLLRVFEEYEKIANKSIEDSIKSETHGSLEEAMLTVVKCTQNLHSYFAERLYYAMKGAGTRDGTLIRNIVSRSEIDLNLIKCHFKKMYGKTLSSMIMEDTSGDYKNALLSLVGSDP [ANXA8L1] | 0.415 | -0.077
3 | MCARMAGRTTAAPRGPYGPWLCLLVALALDVVRVDCGQAPLDPVYLPAALELLDAPEHFRVQQVGHYPPANSSLSSRSETFLLLQPWPRAQPLLRASYPPFATQQVVPPRVTEPHQRPVPWDVRAVSVEAAVTPAEPYARVLFHLKGQDWPPGSGSLPCARLHATHPAGTAHQACRFQPSLGACVVELELPSHWFSQASTTRAELAYTLEPAAEGPGGCGSGEENDPGEQALPVGGVELRPADPPQYQEVPLDEAVTLRVPDMPVRPGQLFSATLLLRHNFTASLLTLRIKVKKGLHVTAARPAQPTLWTAKLDRFKGSRHHTTLITCHRAGLTEPDSSPLELSEFLWVDFVVENSTGGGVAVTRPVTWQLEYPGQAPEAEKDKMVWEILVSERDIRALIPLAKAEELVNTAPLTGVPQHVPVRLVTVDGGGALVEVTEHVGCESANTQVLQVSEACDAVFVAGKESRGARGVRVDFWWRRLRASLRLTVWAPLLPLRIELTDTTLEQVRGWRVPGPAEGPAEPAAEASDEAERRARGCHLQYQRAGVRFLAPFAAHPLDGGRRLTHLLGPDWLLDVSHLVAPHARVLDSRVASLEGGRVVVGREPGVTSIEVRSPLSDSILGEQALAVTDDKVSVLELRVQPVMGISLTLSRGTAHPGEVTATCWAQSALPAPKQEVALSLWLSFSDHTVAPAELYDRRDLGLSVSAEEPGAILPAEEQGAQLGVVVSGAGAEGLPLHVALHPPEPCRRGRHRVPLASGTAWLGLPPASTPAPALPSSPAWSPPATEATMGGKRQVAGSVGGNTGVRGKFERAEEEARKEETEAREEEEEEEEEMVPAPQHVTELELGMYALLGVFCVAIFIFLVNGVVFVLRYQRKEPPDSATDPTSPQPHNWVWLGTDQEELSRQLDRQSPGPPKGEGSCPCESGGGGEAPTLAPGPPGGTTSSSSTLARKEAGGRRKRVEFVTFAPAPPAQSPEEPVGAPAVQSILVAGEEDIRWVCEDMGLKDPEELRNYMERIRGSS [TMEM132A] | -0.00491 | -0.0467
4 | MCDQQKQPQFPPSCVKGSGLGAGQGSNGASVKCPVPCQTQTVCVTGPAPCPTQTYVKYQVPCQTQTYVKCPAPCQRTYVKYPTPCQTYVKCPAPCQTTYVKCPTPCQTYVKCPAPCQMTYIKSPAPCQTQTCYVQGASPCQSYYVQAPASGSTSQYCVTDPCSAPCSTSYCCLAPRTFGVSPLRRWIQRPQNCNTGSSGCCENSGSSGCCGSGGCGCSCGCGSSGCCCLGIIPMRSRGPACCDHEDDCCC [XP32] | -1.33 | 1.06
5 | MDAAEPGLPPGPEGRKRYSDIFRSLDNLEISLGNVTLEMLAGDPLLSEDPEPDKTPTATVTNEASCWSGPSPEGPVPLTGEELDLRLIRTKGGVDAALEYAKTWSRYAKELLAWTEKRASYELEFAKSTMKIAEAGKVSIQQQSHMPLQYIYTLFLEHDLSLGTLAMETVAQQKRDYYQPLAAKRTEIEKWRKEFKEQWMKEQKRMNEAVQALRRAQLQYVQRSEDLRARSQGSPEDSAPQASPGPSKQQERRRRSREEAQAKAQEAEALYQACVREANARQQDLEIAKQRIVSHVRKLVFQGDEVLRRVTLSLFGLRGAQAERGPRAFAALAECCAPFEPGQRYQEFVRALRPEAPPPPPPAFSFQEFLPSLNSSPLDIRKKLSGPLPPRLDENSAEPGPWEDPGTGWRWQGTPGPTPGSDVDSVGGGSESRSLDSPTSSPGAGTRQLVKASSTGTESSDDFEERDPDLGDGLENGLGSPFGKWTLSSAAQTHQLRRLRGPAKCRECEAFMVSGTECEECFLTCHKRCLETLLILCGHRRLPARTPLFGVDFLQLPRDFPEEVPFVVTKCTAEIEHRALDVQGIYRVSGSRVRVERLCQAFENGRALVELSGNSPHDVSSVLKRFLQELTEPVIPFHLYDAFISLAKTLHADPGDDPGTPSPSPEVIRSLKTLLVQLPDSNYNTLRHLVAHLFRVAARFMENKMSANNLGIVFGPTLLRPPDGPRAASAIPVTCLLDSGHQAQLVEFLIVHYEQIFGMDELPQATEPPPQDSSPAPGPLTTSSQPPPPHLDPDSQPPVLASDPGPDPQHHSTLEQHPTATPTEIPTPQSDQREDVAEDTKDGGGEVSSQGPEDSLLGTQSRGHFSRQPVKYPRGGVRPVTHQLSSLALVASKLCEETPITSVPRGSLRGRGPSPAAASPEGSPLRRTPLPKHFEITQETARLLSKLDSEAVPRATCCPDVQPEEAEDHL [GMIP] | 0.095 | 0.0497
6 | MDEEPERTKRWEGGYERTWEILKEDESGSLKATIEDILFKAKRKRVFEHHGQVRLGMMRHLYVVVDGSRTMEDQDLKPNRLTCTLKLLEYFVEEYFDQNPISQIGIIVTKSKRAEKLTELSGNPRKHITSLKEAVDMTCHGEPSLYNSLSMAMQTLKHMPGHTSREVLIIFSSLTTCDPSNIYDLIKTLKAAKIRVSVIGLSAEVRVCTVLARETGGTYHVILDESHYKELLTHHLSPPPASSSSECSLIRMGFPQHTIASLSDQDAKPSFSMAHLDGNTEPGLTLGGYFCPQCRAKYCELPVECKICGLTLVSAPHLARSYHHLFPLDAFQEIPLEEYNGERFCYGCQGELKDQHVYVCAVCQNVFCVDCDVFVHDSLHCCPGCIHKIPAPSGV [GTF2H2C] | -0.398 | 0.181
7 | MDEKTKKAEEMALSLTRAVAGGDEQVAMKCAIWLAEQRVPLSVQLKPEVSPTQDIRLWVSVEDAQMHTVTIWLTVRPDMTVASLKDMVFLDYGFPPVLQQWVIGQRLARDQETLHSHGVRQNGDSAYLYLLSARNTSLNPQELQRERQLRMLEDLGFKDLTLQPRGPLEPGPPKPGVPQEPGRGQPDAVPEPPPVGWQCPGCTFINKPTRPGCEMCCRARPEAYQVPASYQPDEEERARLAGEEEALRQYQQRKQQQQEGNYLQHVQLDQRSLVLNTEPAECPVCYSVLAPGEAVVLRECLHTFCRECLQGTIRNSQEAEVSCPFIDNTYSCSGKLLEREIKALLTPEDYQRFLDLGISIAENRSAFSYHCKTPDCKGWCFFEDDVNEFTCPVCFHVNCLLCKAIHEQMNCKEYQEDLALRAQNDVAARQTTEMLKVMLQQGEAMRCPQCQIVVQKKDGCDWIRCTVCHTEICWVTKGPRWGPGGPGDTSGGCRCRVNGIPCHPSCQNCH [RBCK1] | 0.08 | -0.0181
